B1: Ubiquitin-conjugating enzyme E2 R1 (Homo sapiens), P49427 (parent)
chain: MARPLVPSSQKALLLELKGLQEEPVEGFRVTLVDEGDLYNWEVAIFGPPNTYYEGGYFKARLKFPIDYPYSPPAFRFLTKMWHPNIYETGDVCISILHPPVDDPQSGELPSERWNPTQNVRTILLSVISLLNEPNTFSPANVDASVMYRKWKESKGKDREYTDIIRKQVLGTKVDAERDGVKVPTTLAEYCVKTKAPAPDEGSDLFYDDYYEDGEVEEEADSCFGDDEDDSGTEES

Variants of: B1
Details: with rbx1_human RBX1, P62877
Sequence of rbx1_human RBX1, P62877 (P62877 whole entry, looked up): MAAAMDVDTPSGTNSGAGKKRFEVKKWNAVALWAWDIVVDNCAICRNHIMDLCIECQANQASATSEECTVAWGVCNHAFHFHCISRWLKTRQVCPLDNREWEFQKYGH

| Variant | effect of a mutation on the interaction |
| --- | --- |
| T117E | disrupting interaction strength |
| Y70R | disrupting interaction strength |

From IntAct's records for PubMed 24316736
